# Values joined by “and” are separate entries in the source; they are usually repeats but may differ in a detail not shown here. Equal values may be shown once.
# What was measured:
# [1] = target: MabSelect SuRe protein A ligand: tetrameric chain of Z-domains (recombinant form of the B domain of (Staphylococcus aureus)); test: SAXS
# [2] = target: MabSelect SuRe protein A ligand: tetrameric chain of Z-domains (recombinant form of the B domain of (Staphylococcus aureus)); test: batch adsorption isotherm
substance,measurement,setting,value
Trastuzumab (antibody),stoichiometry N (antibody : protein A chain),[1],1 and 2
same,stoichiometry N (antibody molecules per ligand),[2],2
